Data as given in patent publication US20220380801A1, “TRIPARTITE SYSTEMS FOR PROTEIN DIMERIZATION AND METHODS OF USE” (priority 2019, published 2022).
Where two headings read alike, the source gives them in different places.

Tests used:
HCV NS3/4A PR (S139A) [1] = target: T1, HCV NS3/4A PR (S139A) (Hepatitis C virus subtype 1a, UniProt A8DG50, A1066T/I1043Q/I1044E/L1039E/L1040E/L1047Q/S1165A, form not given); test: HTRF binding screen; conditions: in the presence of simeprevir
Method: scFv and Tn3 PRSIM binding molecules that were selective for the HCV NS3/4A PR (S139A) were identified in homogeneous time-resolved fluorescence (HTRF®) assays run in parallel to measure binding in the presence and absence of simeprevir. HCV NS3/4A PR (S139A), and serial dilutions of purified PRSIM binding molecules, were prepared in assay buffer (PBS containing 0.4 M potassium fluoride and 0.1% BSA). Streptavidin cryptate (Cisbio) was pre-mixed with either anti-FLAG XL665 (to detect the Tn3 molecules) or anti-c-myc XL665 (to detect the scFv molecules) in assay buffer. For each assay 2.5 μl of sample titration was added to 2.5 μl HCV NS3/4A PR (S139A) and 2.5 μl of pre-mixed detection reagents. Either 2.5 μl simeprevir or 2.5 μl of a DMSO blank were also added to each well. Background was defined using wells with zero sample addition. Assay plates were incubated overnight at 4° C., prior to reading the time resolved fluorescence at 620 nm and 665 nm emission wavelengths using a PerkinElmer Envision plate reader. Data was analysed by calculating % Delta F values for each sample. Delta F was determined according to equation 1.
% Delta F=((sample 665 nm/620 nm ratio value)−(background 665 nm/620 nm ratio value)/(background 665 nm/620 nm ratio value))×100 Equation 1
Selective binding molecules are defined as those scFv and Tn3 PRSIM binding molecules that bind to HCV NS3/4A PR (S139A) in complex with simeprevir and no binding to HCV NS3/4A PR (S139A).

HCV NS3/4A PR (S139A) [2] = target: T1, HCV NS3/4A PR (S139A); test: Biacore 8K binding kinetics of PRSIM binding molecules; conditions: 10 nM simeprevir present
Method: The scFv and Tn3 PRSIM binding molecules were covalently immobilised to a CM5 chip surface using standard amine coupling techniques at a concentration of 1 μg/ml in 10 mM sodium acetate pH 4.5.
(§1) The HCV NS3/4A PR (S139A), or BSA control, was diluted 1:4 (1.25-20 nM)±10 nM simeprevir in 10 mM Hepes pH 7.4, 150 mM NaCl, 0.05% Surfactant P20, 0.01% DMSO, ensuring constant simeprevir and DMSO concentration. The samples were flowed over the chip at 50 μl/min using single cycle kinetics, with 120 sec association and 600 sec dissociation. The chip surface was regenerated with two 20 sec pulses of 10 mM Glycine-HCl pH 3.0. The final sensorgrams were analysed using the Biacore 8K Evaluation Software and the affinity constant KD was determined using a 1:1 binding model. The same method was used for measuring the affinity of the HCV NS3/4A PR mutants for PRSIM_23 with minor deviations. The mutants were diluted 1:4 (2.5-40 nM)±simeprevir in 10 mM Hepes pH 7.4, 150 mM NaCl, 0.05% Surfactant P20, 0.08% DMSO, ensuring constant simeprevir and DMSO concentration. The samples were flowed over the chip at 50 μl/min using single cycle kinetics, with 180 sec association and 600 sec dissociation.

BSA = BSA (Bos taurus, UniProt P02769); test: Biacore 8K BSA control; format: binding; design: key: # = no binding; * = minimal non-specific binding; conditions: 10 nM simeprevir present
Method: as §1

[3] = tested on: luciferase reporter gene in HEK293 cells; test: Transcriptional regulation assay (split transcription factor), luciferase reporter; format: cell-based, human; conditions: one copy; for EC50: simeprevir dose-response, read-out: EC50
Source text: The iDimerize regulated transcription system (Takara) was used to test the ability of PRSIM-based CIDs to regulate gene expression. […] The DBD and AD are separately fused to the two protein components of a CID such that, only in the presence of the small molecule inducer, the AD is brought into close proximity to the DBD, recruiting the transcription machinery to a promoter harbouring the DBD recognition sites. The iDimerize regulated transcription system (Takara) provides two vectors, pHet-Act1-2 and pZFHD1-Luciferase. The pHet-Act1-2 vector encodes two fusion proteins that represent a positive control: one is a fusion between FRB (T82L mutant; DmrC) and an activation domain (AD) from human p65 (SEQ ID NO: 42); the other is a fusion protein comprised of a DNA binding domain (ZFHD1) (SEQ ID NO: 43) fused to three tandem copies of FKBP12 (DmrA). These sequences are preceded by a CMV promoter and separated by an internal ribosome entry site (IRES). The ZFHD1 vector encodes luciferase preceded by an inducible promoter consisting of 12 copies of the recognition sequence of the ZFHD1 DBD upstream of a minimal IL-2 promoter. Binding of the DBD to its recognition sequence and recruitment of the transcriptional machinery by the AD initiates transcription of the luciferase reporter gene. The DNA sequence encoding HCV NS3/4A PR (S139A) was purchased as a DNA string from GeneArt and cloned into the pHet-Act1-2 vector as either an N-terminal fusion partner to the activation domain (SEQ ID NO: 44) (replacing FRB) or as a C-terminal fusion partner to the DNA binding domain (SEQ ID NO: 45) (replacing FKBP12) with flexible linkers (TGGGGSGGGGS (SEQ ID NO: 185) and SA, respectively) between the fusion partners. Subsequently, sequences encoding one copy of a panel of 12 PRSIM molecules (Table 2) were purchased as DNA strings from GeneArt and were cloned using Gibson assembly into the HCV NS3/4A PR (S139A)-containing pHetAct1-2 constructs described above, as a fusion partner to either the DBD (SEQ ID NOS: 46-56) or AD (SEQ ID NOS: 57-67), respectively. An equivalent construct was generated to replace the three copies of FKBP12 in pHet-Act1-2 with a single copy of FKBP12. The sequence of the constructs encoding both activation domain and DNA-binding domain fusion proteins was confirmed by Sanger sequencing of the entire coding region.
Sequences encoding the three HCV NS3/4A PR (S139A) mutants (Table 6) were purchased as DNA strings from GeneArt and were cloned using Gibson assembly into the pHetAct1-2 HCV NS3/4A PR (S139A)-PRSIM_23 (3 tandem copy) construct described above as a fusion partner to the AD (SEQ ID NOs: 211-216).
All transcriptional regulation assays were performed in adherent HEK293 cells cultured in 384-well plates. Cells enzymatically dissociated from a tissue culture flask were counted and plated at 7.5×10^3 cells/well in a 384-well plate. The plates were incubated overnight at 37° C. with 5% CO2 to allow the cells to adhere. On day 2, the cells were co-transfected with a pHet-Act1-2 plasmid (containing the FRB:FKBP12 control fusion proteins (Clontech) or the HCV NS3/4A PR (S139A):PRSIM fusion proteins) and a pZFHD1 plasmid (encoding either luciferase (Clontech) or NanoLuc-PEST (as described above)) using Lipofectamine LTX (ThermoFisher). On day 3, wells were treated with different concentrations of either A/C heterodimeriser (for the FRB:FKBP12 control), simeprevir or with vehicle control, and 24 hours later luminescence was quantified with an Envision plate reader immediately following addition of SteadyGlo luciferase substrate (Promega) or Nano-Glo Vivazine luciferase substrate (Promega). Alternatively, reverse transfections were carried out on Day 1, addition of dimeriser on Day 2 and luminescence quantified 24 hours later on Day 3.
Luminescence readings were converted into fold-change by dividing the signal in the presence of simeprevir by that in the absence of simeprevir.

Molecule | HTRF max. signal (% delta F) (HCV NS3/4A PR (S139A) [1]) | Rmax (HCV NS3/4A PR (S139A) [2]) [RUs] | ka (HCV NS3/4A PR (S139A) [2]) | kd (HCV NS3/4A PR (S139A) [2]) [s⁻¹] | BSA control (BSA) | Max fold change ([3]; PRSIM fused to AD) | EC50 ([3]; PRSIM fused to AD) [nM] | Max fold change ([3]; PRSIM fused to DBD) | EC50 ([3]; PRSIM fused to DBD) [nM]
PRSIM_47: Tn3 PRSIM binding molecule, SEQ ID NO: 9 (protein, PRSIM_47) RLDAPSQIEVKDVTDTTALITWSRPGVSIWYFELTYGIKDVPGDRTTIKLDYRSYYYSIGNLKPDTEYEVSLISGSYGLVGVRASNPAKITFKTGL | 1367 | 9 | 1.32e+10 M⁻¹ s⁻¹ | 51.2 | # | 3.85 | 6.15 | 3 | 8.87
PRSIM_36: Tn3 PRSIM binding molecule, SEQ ID NO: 8 (protein, PRSIM_36) RLDAPSQIEVKDVTDTTALITWSWPRDDDYDIWYFELTYGIKDVPGDRTTIKLLNYASPYSIGNLKPDTEYEVSLISVVPDTYGRGTSNPAKITFKTGL | 1440 | 214.4 | 5.15e+06 M⁻¹ s⁻¹ | 0.0498 | # | 33.74 | 3.54 | 73.3 | 5.66
PRSIM_32: Tn3 PRSIM binding molecule, SEQ ID NO: 6 (protein, PRSIM_32) RLDAPSQIEVKDVTDTTALITWWSPRYYYASISGFELTYGIKDVPGDRTTIKLDYASNDYSIGNLKPDTEYEVSLISWNYGDWRYSSSNPAKITFKTGL | 1955 | 19.9 | 2.51 E+09 M^−1 s^−1 | 40.1 | # | 2.2 | 12.3 | 65.77 | 29.3
